From US9163048B2, “Multi-functional nucleic acid-based anti-cancer drug capable of targeting and therapy, method for preparing same and anti-cancer composition comprising same” (RESEARCH & BUSINESS FOUNDATION SUNGKYUNKWAN UNIVERSITY, priority 2011, dated 2015)

B1: linear nucleic acid (nucleic acid)
chain 1: GCTACGAGTAGGTACGGATCTGGCTGTACTGATGTGCCTGCGAC
chain 2: GTCGCAGGCACATCAGTACAGCCAGATCCGTACCTACTCG
modifications: chemistry not given here

Columns and labels:
[1] = tested on: prostate cancer cells (LNCaP cell line); experiment: Anticancer effect, acridine orange / propidium iodide staining, confocal microscope; assay type: cell-based; conditions: 2 hours treatment, 24 hours culture, NIR radiation 10 minutes, 10 μM contained doxorubicin
Protocol: In addition, after the cells were treated with 10 μM (concentration of the contained doxorubicin) of the multifunctional nucleic-acid-based anticancer drug for 2 hours, the medium was exchanged with a fresh RPMI 1640 medium to remove the multifunctional nucleic-acid-based anticancer drug remaining at an outside of the cells, and the cells were cultured for 24 hours. Afterward, the cells were irradiated with […] for 10 minutes, and stained with acridine orange and propidium iodide (PI). As a control group, instead of the multifunctional nucleic-acid-based anticancer drug, a test was performed using phosphate buffered saline, doxorubicin, gold nanoparticles, an A10 aptamer and an anticancer-drug-captured nucleic acid structure.
This means that the multifunctional nucleic-acid-based anticancer drug can kill cells more effectively by applying both doxorubicin (chemotherapy) and an exothermic effect (thermal treatment).

[2] = Capture of doxorubicin in linear nucleic acid, autofluorescence of unbound doxorubicin in supernatant; assay type: physicochemical; conditions: per 1 μM linear nucleic acid (SEQ ID NOs 1 and 2); room temperature, 24 hours
Description: A supernatant was retrieved, and autofluorescence of the doxorubicin not binding to the linear nucleic acid was detected using a molecular device (SpectraMax M2 Microplate Reader).

Molecule | cell death (PI staining, red fluorescence) [1] | maximum doxorubicin bound per 1 μM linear nucleic acid [2]
COc1cccc2c1C(=O)c1c(O)c3c(c(O)c1C2=O)C[C@@](O)(C(=O)CO)C[C@@H]3O[C@H]1C[C@H](N)[C@H](O)[C@H](C)O1 [doxorubicin, reference compound] | dead cells stained with PI were observed | –
B1 | red fluorescence was hardly observed | 10 µM
